Measured values from PMC7138838, “Gating mechanism of elongating β-ketoacyl-ACP synthases” (Nature Communications, 2020).

B1: FabF (KASII family β-ketoacyl-ACP synthase), wild type (enzyme, E. coli)
chain: MSKRRVVVTGLGMLSPVGNTVESTWKALLAGQSGISLIDHFDTSAYATKFAGLVKDFNCEDIISRKEQRKMDAFIQYGIVAGVQAMQDSGLEITEENATRIGAAIGSGIGGLGLIEENHTSLMNGGPRKISPFFVPSTIVNMVAGHLTIMYGLRGPSISIATACTSGVHNIGHAARIIAYGDADVMVAGGAEKASTPLGVGGFGAARALSTRNDNPQAASRPWDKERDGFVLGDGAGMLVLEEYEHAKKRGAKIYAELVGFGMSSDAYHMTSPPENGAGAALAMANALRDAGIEASQIGYVNAHGTSTPAGDKAEAQAVKTIFGEAASRVLVSSTKSMTGHLLGAAGAVESIYSILALRDQAVPPTINLDNPDEGCDLDFVPHEARQVSGMEYTLCNSFGFGGTNGSLIFKKI
notes: FabF, elongating β-ketoacyl-ACP synthase (KASII family), E. coli; also called wt FabF; source: E. coli BL21, purified (Ni-NTA, thrombin cleavage, Superdex 200); not shown: His8, N-terminal, cleaved
B2: C8Cl-AcpP (natural protein, E. coli)
chain: MSTIEERVKKIIGEQLGVKQEEVTNNASFVEDLGADSLDTVELVMALEEEFDTEIPDEEAEKITTVQAAIDYINGHQA
modifications: Ser36 carries a 4'-phosphopantetheineamide arm with the C8 chloroacrylate (chlorovinyl) probe
notes: acyl carrier protein AcpP, E. coli; also called C8Cl (2b); source: E. coli BL21 (DE3), purified; apofied with AcpH, loaded with the C8 chloroacrylate probe by the one-pot chemoenzymatic method, purified by SEC
B3: crypto-1b-AcpP (C16AcpP) (natural protein, E. coli)
chain: B2 chain
modifications: Ser36 carries a 4'-phosphopantetheineamide arm with the C16 α-bromo acyl probe 1b
notes: acyl carrier protein AcpP, E. coli; Called 'native AcpP recombinant protein'; no tag is named; In the crosslinked complexes the α-carbon of the probe is bonded to Cys163 of the KS; source: E. coli BL21 (DE3), purified (isopropanol precipitation, HiTrap Q, Superdex 75); apofied with AcpH, loaded with probe 1b by the one-pot chemoenzymatic method, purified by SEC
B4: C3Cl-AcpP (natural protein, E. coli)
chain: B2 chain
modifications: Ser36 carries a 4'-phosphopantetheineamide arm with the C3 chloroacrylate (chlorovinyl) probe
notes: acyl carrier protein AcpP, E. coli; also called C3Cl (2a); source: E. coli BL21 (DE3), purified; apofied with AcpH, loaded with the C3 chloroacrylate probe by the one-pot chemoenzymatic method, purified by SEC
B5: 1c-AcpP (C2αBr-AcpP) (natural protein, E. coli)
chain: B2 chain
modifications: Ser36 carries a 4'-phosphopantetheineamide arm with the C2 α-bromo probe 1c
notes: acyl carrier protein AcpP, E. coli; also called C2αBr (1c); crypto-1c-ACP; source: E. coli BL21 (DE3), purified; apofied with AcpH, loaded with probe 1c by the one-pot chemoenzymatic method, purified by SEC
B6: crypto-1a-AcpP (C12AcpP) (natural protein, E. coli)
chain: B2 chain
modifications: Ser36 carries a 4'-phosphopantetheineamide arm with the C12 α-bromo acyl probe 1a
notes: acyl carrier protein AcpP, E. coli; Called 'native AcpP recombinant protein'; no tag is named; In the crosslinked complexes the α-carbon of the probe is bonded to Cys163 of the KS; also called C12αBr-AcpP; C12αBr (1a); source: E. coli BL21 (DE3), purified (isopropanol precipitation, HiTrap Q, Superdex 75); apofied with AcpH, loaded with probe 1a by the one-pot chemoenzymatic method, purified by …
B7: FabB (KASI family β-ketoacyl-ACP synthase), wild type (enzyme, E. coli)
chain: MKRAVITGLGIVSSIGNNQQEVLASLREGRSGITFSQELKDSGMRSHVWGNVKLDTTGLIDRKVVRFMSDASIYAFLSMEQAIADAGLSPEAYQNNPRVGLIAGSGGGSPRFQVFGADAMRGPRGLKAVGPYVVTKAMASGVSACLATPFKIHGVNYSISSACATSAHCIGNAVEQIQLGKQDIVFAGGGEELCWEMACEFDAMGALSTKYNDTPEKASRTYDAHRDGFVIAGGGGMVVVEELEHALARGAHIYAEIVGYGATSDGADMVAPSGEGAVRCMKMAMHGVDTPIDYLNSHGTSTPVGDVKELAAIREVFGDKSPAISATKAMTGHSLGAAGVQEAIYSLLMLEHGFIAPSINIEELDEQAAGLNIVTETTDRELTTVMSNSFGFGGTNATLVMRKLKD
notes: FabB, elongating β-ketoacyl-ACP synthase (KASI family), E. coli; source: E. coli BL21, purified (Ni-NTA, thrombin cleavage, Superdex 200); not shown: His8, N-terminal, cleaved

Legend:
[1] = target: the molecule itself; test: crystal structure; AcpP covalently crosslinked through its pantetheineamide probe (Ser36) to Cys163 of the KS (crypto-AcpP:KS 5:1, 37 °C, 16 h; SEC in 20 mM Tris, 50 mM NaCl, pH 7.4); hanging drop, 6 °C, PEG 8K, 0.1 M sodium cacodylate pH 6.5
[2] = target: FabF F400A (gate removal mutant) (E. coli); test: cross-linking; mechanism-based crosslinking, single time point: 40 μM crypto-AcpP, 20 μM FabF, 25 mM Tris, 150 mM NaCl, 10% glycerol, 0.5 mM TCEP, pH 7.4; SDS-PAGE densitometry; efficiency normalised to the average of wt FabF; n = 3
[3] = target: FabF G402A (loop flexibility-modulated mutant) (E. coli); test: as above
[4] = target: B1; test: as above; conditions: both partners purified
[5] = target: B1; test: crystal structure; AcpP covalently crosslinked through its pantetheineamide probe (Ser36) to Cys163 of the KS (crypto-AcpP:KS 5:1, 37 °C, 16 h; SEC in 20 mM Tris, 50 mM NaCl, pH 7.4); hanging drop, 6 °C, PEG 8K, 0.1 M sodium cacodylate pH 6.5; conditions: both partners purified
[6] = target: FabF D265A (loop 2 destabilization mutant) (E. coli); test: cross-linking; mechanism-based crosslinking, single time point: 40 μM crypto-AcpP, 20 μM FabF, 25 mM Tris, 150 mM NaCl, 10% glycerol, 0.5 mM TCEP, pH 7.4; SDS-PAGE densitometry; efficiency normalised to the average of wt FabF; n = 3
[7] = target: FabF D265N (loop 2 destabilization mutant) (E. coli); test: as above
[8] = target: FabF G310F (pocket-blockage mutant) (E. coli); test: as above
[9] = target: FabF G310M (pocket-blockage mutant) (E. coli); test: as above

Binder	binding result [4]	crosslinking efficiency normalised to wt FabF [6]	crosslinking efficiency normalised to wt FabF [7]	crosslinking efficiency normalised to wt FabF [8]	crosslinking efficiency normalised to wt FabF [9]	also measured
B1						stoichiometry N [1]: 2
B2	binds					crosslinking efficiency normalised to wt FabF [2]: 133%; crosslinking efficiency normalised to wt FabF [3]: 24%
B3						binding result [5]: binds
B4	binds	63%	73%	85%	82%	crosslinking efficiency normalised to wt FabF [3]: 87%
B5	binds	72%	77%	73%	70%	
B6		51%	64%	33%	30%	binding result [5]: binds
B7						stoichiometry N [1]: 2
